These results are taken from patent publication US20160348112.

The data set has as its target Clumping factor A (ClfA) (Staphylococcus aureus NRS384 (USA300)) (UniProt Q2G015). Put plainly: filter. The conditions noted are these: BndU at every n (W); full-length clone also has fixed flanking regions not printed [BndU at 2,4,7,8,14,20,21,27,29,32,33,34,35,36,40]; SB18T, 5 mM MgCl2; full-length aptamer.

Chain of Clumping factor A (ClfA) (Staphylococcus aureus NRS384 (USA300)) (Q2G015 40-893): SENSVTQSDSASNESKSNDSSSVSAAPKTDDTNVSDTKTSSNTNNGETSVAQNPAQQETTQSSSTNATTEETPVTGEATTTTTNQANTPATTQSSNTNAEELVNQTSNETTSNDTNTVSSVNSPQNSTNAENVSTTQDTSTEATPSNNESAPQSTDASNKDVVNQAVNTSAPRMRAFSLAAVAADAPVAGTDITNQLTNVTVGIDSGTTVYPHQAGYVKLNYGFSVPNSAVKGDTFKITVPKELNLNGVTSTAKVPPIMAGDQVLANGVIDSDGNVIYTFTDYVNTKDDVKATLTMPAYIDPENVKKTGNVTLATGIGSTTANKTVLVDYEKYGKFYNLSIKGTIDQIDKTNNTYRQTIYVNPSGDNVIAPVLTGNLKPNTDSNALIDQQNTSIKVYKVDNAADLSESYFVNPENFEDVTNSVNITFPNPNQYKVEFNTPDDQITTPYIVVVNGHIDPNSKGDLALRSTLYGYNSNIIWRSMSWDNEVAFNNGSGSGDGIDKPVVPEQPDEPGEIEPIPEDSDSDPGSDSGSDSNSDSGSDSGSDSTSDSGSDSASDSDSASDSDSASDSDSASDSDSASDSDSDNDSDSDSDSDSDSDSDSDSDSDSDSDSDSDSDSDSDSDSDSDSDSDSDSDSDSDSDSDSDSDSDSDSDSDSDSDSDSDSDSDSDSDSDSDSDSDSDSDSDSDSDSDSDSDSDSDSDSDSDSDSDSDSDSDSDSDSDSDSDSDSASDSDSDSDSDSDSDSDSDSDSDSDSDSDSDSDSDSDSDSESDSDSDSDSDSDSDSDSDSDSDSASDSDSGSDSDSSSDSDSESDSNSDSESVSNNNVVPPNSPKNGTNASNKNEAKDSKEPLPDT

Turning to “ATCTGGTTCAAAGTGGCGATTGGGCATCTGGTTTTTAAGT [4503-73]”, the Kd (as a rule, the constant that tells how readily two partners part at equilibrium) is 790 pM.
